Experiment: label from the status in PepcDB records

Question: With “MVKDRQIQKTKVAIYNAFISLLQENDYSKITVQDVIGLANVGRSTFYSHYESKEVLLKELCEDLFHHLFKQGRDVTFEEYLVHILKHFEQNQDSIATLLLSDDPYFLLRFRSELEHDVYPRLREEYITKVDIPEDFLKQFLLSSFIETLKWWLHQRQKMTVEDLLKYYLTMVER” as the sequence, how does the protein production read?
Answer: The protein production was “not failed”.

Question: Which protein production does the source give for “MVKDTLFSTPIAKLGDFIFDENVAEVFPDMIQRSVPGYSNIITAIGMLAERFVTADSNVYDLGCSRGAATLSARRNINQPNVKIIGIDNSQPMVERCRQHIAAYHSEIPVEILCNDIRHVEIKNASMVILNFTLQFLPPEDRIALLTKIYEGLNPNGVLVLSEKFRFEDTKINHLLIDLHHQFKRANGYSELEVSQKRTALENVMRTDSIETHKVRLKNVGFSQVELWFQCFNFGSMIAVK” here?
Answer: Its protein production is “not failed”.

Question: Which protein production does the source give for “MVKFIHCSDLHLDSPFKSKSHISPKIFEDVQKSAYESFKNIVDIALQQDVDFVIIAGDLFDSENRTLRAEIFLKQQFERLQNEQIFVYVCHGNHDPLSSKISSNWPDNVSVFSNKVETYEAITKSGETIYIHGFSYENRASYENKIDEYPSSQGQKGIHIGVLHGTYSKSSVNERYTEFILEDLNSKLYHYWALGHIHERQQLSDMPVINYSGNIQGRHFNEQGEKGCLLIEGDHLKLKTKFYPTQYIRFEEATIETDKTSKQGLYEVIQNFKEQVREEGKAFYRLTLVINSETLISPQDLLQVEEMITDYEENENQFVYIDELKIQYAQNDESPLVNEFSAELLVDQTVFDKAMSDLYLNPRASKFLDDYGTFDHTALVNRAEEILKAEMRGEQNDN” here?
Answer: Its protein production is “failed”.

Question: For “MVKHIWDSERAAQLPKGVEELVYRSNLIGSDRTVCNWGGGNTSMKTTEKDFRGREIEVMWVKGSGSDLATMKAHNFSGLKLDDIRPLIKRDQMPDEEMVDYLSHCMIDSKHPRPSIETLLHAFLPYKHVDHTHPDAIISICCADNGKQIAEDIYGNRFVWVPYVRPGFTLSKMIAEGVANNPHAELVLMEKHGLVTWGETSETCYQKTISIIQEAEQYINDRINQHEVFGGKRYQPLPEDKR”, which protein production is on record?
Answer: The protein production was “not failed”.

Question: For “MVKKLFILISYGVIAALIYLYGEWLLEWIQQGGARFIFLTVIIATLLALFPIIPYPIIGGVLGAAYGPFLGSAVTWIGSSLASIIMFMFVRYGYQDWGLSLIRRSDLVTKVTAMFEKNAFMAIFITRLIPIIPSIIVNIYSALSRVSFINYSIASSLGKVPSMILFAVVGNSIATNPSQLLWIALFYSSFLLIVWIGYRAWQRVALQKQANI”, which protein production is on record?
Answer: The protein production was “failed”.

Question: With “MVKLDRYIGVTVFVAILAVLGVILGLALLFAFIDELNDISASYGIGDALRFIFLTAPRRAYDMLPMAALIGCLVGLGTLASNSELTIMRAAGVSLSRIVWAVMKPMLVLMLAGILVGEYVAPWTENIAQSGRALAQGGGDSQSSKRGLWHRQGREYIHINAVQPNGVLYGVTRYRFDEQRGLESASFAKRARFETDHWQLEEVTTTLLHPREKRSEVVKLPTERWDAQLSPQLLNTVVMEPEALSISGLWQYIHYLADQGLNNNRYWLAFWTKVLQPLVTAALVLMAISFIFGPLRSVTLGQRIFTGVLVGFVFRIAQDLLGPSSLVFDFPPLLAVVIPASICALAGVWLLRRAG” as the sequence, how does the protein production read?
Answer: Its protein production is “failed”.

Question: Which protein production does the source give for “MVKTMAKKKAVKVLRKQKKRETLRRFTQKQNIGRACLTAQEFRLLQRMSHSSKALRNVGLYTMKQSYLNHNKMATVKEVDIAMQADMNYWGIQSNSLQAIRRALFTEVKSFFKALEKWKKNPEKFTGRPKFPNYSHSTDKRIIEIYQVPKVDENGFWMIPMSVAFRKKFGSIKIRMPKNLRNKNISYIEIVPKQKGRFFEVHYTYEMHVSQMKKQPMTTSNALGCDLGVDRLVSCVTNTGDAFLIDGKKLKSINQYFNKTIRNLQQKNVENGLSKRIVTNKIAALWHKRERQIHGYIAQTVGLLFKKVKEFDIDTIVVGYNAGWKQNSHMGKKNNQKFVQIPFHKLIAAIENKCIKEGIRFFKQEESYTSKASFLDKDPVPVWSKDDRTQYRFSGKRITRGLYQSKAGTCIHADINGALNTLQKSQVVELDGNLKVKTPILLEVQKRKAVASRIALEHHHHHH” here?
Answer: Its protein production is “failed”.

Question: For “MVKYAKTPKSFINIKDLGFALLETDELDGTIKYSNVTQTRGLQEISVETGGEIVNAYADGSIIESGTTDGEGKISMTMHAFPQEIRELIFNEIYNEAGVYSEERGKQNNYVAVWFKRERRDGSYQQVGLTKVMFADPNLEGKTAEEDWEFSSEESEGTAMHRIADGKRKILFDSSREGANVDSFFQELLNGAYDSKTEVDTGDSTTGESAAEALEHHHHHH”, which protein production is on record?
Answer: Its protein production is “failed”.

Question: Which protein production does the source give for “MVLEYVYCLLAFCLYFMAYCINPDCSQRENPDTSAVCQNCGTPLILQNRYRLRHFLRTDRGSYTEVFAIEDLVNRDQPKVLKSLKEVTPQLERLFQQEASILNTLRHPGLPIGEALFPLVLNTGRQLWCFVMEKIPGEDLQTWLSHHQYVTSYKTALDWLKQLTQILQFVHEEKFFHRDIKPANIMVCPDGKLVLIDFGAARKVTQTIINRESVTIVHSLGYTAPEQRDGHAVVQSDFYALGRTLIYLLTGIDPTGDRAQDLLNWSKYIQDPKTPKKFISLLQVMTDSHPYHRPPTAQAILEKIEKIDQHSHQWPKLLLSATCGVLLLFAGKSLYQEITLPRTCDNILNDYLSCGEESLTPSSFWGNSQPPPAKQLGMEQYRNRNFGAAVNFLETAFQQESDPETLIYLNNAKIHQQFPANQIYTIAVAVPLERRTDIGREILRGVAQAQTEALKKGRALRIIIADDSNREDSKTGNNARKIAQHLVKYRDLLAVLGHYSSEATKNSLPIYSQARVVLISATSTSQNLKDPFFFRTVPSDRIAAQKMVTYLLSALKQNQVAIFYSRGSEYAESLSQAVRESTKSLPLKVIDHQAAFNLASDRFNAITALNQAQTQGAKAIVLIPDAGVGLYNAIPNALRVIQSNINQVWIVAGDSLYSSDSFTSEKAFSSPEIKYTAWAVFWHPLNEINSTFVKEVQNLWKIDILSILSNTNITWRTATSYDATLVLSQAITQNPTRLGIKKTLSQPQFSVTGATGVIQFAGSDRQNGKITMVRVQRNCDDNGFFFIPSDRSLQCQ” here?
Answer: The protein production was “failed”.

Question: Which protein production does the source give for “MVLIALLIALSVERLYHSPAFLHWSFFLERWQHWSAARLTNEKWKSEPLQLVRLLVPALAVGFLVVLLDNLMVTFIVSILSLLLAMNCEPARKSYKAYLKAANRGDEQQVNEHQHALTEFAGQHQPKQLSDSLIWINYRQYIAVMFYFVLFGSFGALVYASLRYAEKQISEPESTKLWQQFMWFADWVPARLAGFGLLIVGHFSRAFPVWVKHSLNPQADPDKLLFNVASKAEDIPQHPDDRTEHIACQLRLMRRQQIFWVCVIAALTLTGWVN” here?
Answer: Its protein production is “failed”.

Question: Which protein production does the source give for “MVLKRKGLLIILDGLGDRPIKELNGLTPLEYANTPNMDKLAEIGILGQQDPIKPGQPAGSDTAHLSIFGYDPYETYRGRGFFEALGVGLDLSKDDLAFRVNFATLENGIITDRRAGRISTEEAHELARAIQEEVDIGVDFIFKGATGHRAVLVLKGMSRGYKVGDNDPHEAGKPPLKFSYEDEDSKKVAEILEEFVKKAQEVLEKHPINERRRKEGKPIANYLLIRGAGTYPNIPMKFTEQWKVKAAGVIAVALVKGVARAVGFDVYTPEGATGEYNTNEMAKAKKAVELLKDYDFVFLHFKPTDAAGHDNKPKLKAELIERADRMIGYILDHVDLEEVVIAITGDHSTPCEVMNHSGDPVPLLIAGGGVRTDDTKRFGEREAMKGGLGRIRGHDIVPIMMDLMNRSEKFGA” here?
Answer: Its protein production is “not failed”.

Question: Which protein production does the source give for “MVLLEKLWDDVVAGPQPDRGLGRLRKITTQPINIRDIGEGSSSKVVMHRSLTMPAAVSPGTPTTPTTPTTPRKDNVWRSVFNPGSNLATRAIGSNIFDKPTHPNSPSVYDWLYSGDSRSQHR” here?
Answer: Its protein production is “failed”.

Question: Which protein production does the source give for “MVLLIVDGIIVAISAIAFSPDTVMYSILSLYVVSLTIDKMMVGLNSSRNLLIISQKSDQILNYITNGADRGATKIPVLGGHTGHSQNMIMTTLSTHEVPKVQEEIQKIDETAFIVIIPASTVMGRGFSLQKDYKSVPNDFINPL” here?
Answer: The protein production was “failed”.

Question: For “MVMEYELRTPLVKDQILKLKVGDVVYITGEIFTARDEAHARALEWMEEGKELPFSFDKGVVYHCGPLVKKNDEWRVVSAGPTTSARMNPFTPKILEKVECMGIIGKGGMSEEVVEAMRGKAAYFAFTGGAGALAAMSIKKVKGVVWEDLGMPEAVWLLEVERFGPCIVAIDAHGNSLYRR”, which protein production is on record?
Answer: The protein production was “not failed”.

Question: With “MVMMEQCAWPYIRSVRVRVGERTRAGGEFDLMGTTTRRNASAMKMVGALLALYRQAAGHTQRSLGERFVIGEQQIASIEQGRRPLKPDLAEQLDELLGTKGALSTALSKMPEVDLVPLWAEEFLDREREAIAISSYENQVLPGLLQTEAYAWAVFRSRVPFYDEDTIARLAAARIERQGILQGKEPPITCFVVWEPVVRAPIGGRTVWREQLQRLRACSELPGLMLQVLPQDRTSHAGLNGPFVLLETPEHQRLAYTENQRGSQLIADADEVAILTQKCAMLRSQALTPEDTRDLLDRLLGEQ” as the sequence, how does the protein production read?
Answer: The protein production was “failed”.

Question: Which protein production does the source give for “MVMMSKQLTAQAPVDPIVLGKMGSSYGIRGWLRVFSSTEDAESIFDYQPWFIQKAGQWQQVQLESWKHHNQDMIIKLKGVDDRDAANLLTNCEIVVDSSQLPQLEEGDYYWKDLMGCQVVTTEGYDLGKVVDMMETGSNDVLVIKANLKDAFGIKERLVPFLDGQVIKKVDLTTRSIEVDWDPGFLEHHHHHH” here?
Answer: The protein production was “failed”.

Question: For “MVNFEEMTFENIMESMLDAVPATLDKREGSMIWNSLAPAASQIALLYTWLENAFELVFYDTAPDEFLDRAAAPYGVIRKPAVATQRIIKGIDENDNKIEIPEGSRFFVESENIYFKVTSSTILEQVVECEVAGTKGNADFSNDTILSLDNIYGLAKVEIGDILIPGSDEEELETFRKRFFTKIQKDAFSGNKNHYKLWAEEVLGVGKAKIYPLGYGEGTVKIVITDTNLHPASPTLVEQVRNYIDPLPQKGEGVAPIGAKVFIESAAWKTINISGQLVLKDGKSVNDVIEEITMDINKLFKSITFPEDELTSVKLAVISNIIFSAPSVLDNFNIKLNNEAANIILAENEVPQLGAFSFELILEHHHHHH”, which protein production is on record?
Answer: Its protein production is “failed”.

Question: Which protein production does the source give for “MVNLGAMLFRGRGVKLSQQFAVIGLGRFGRGVCETLHGMGYEVLGSDNQERLVNQVLQDHIVDHAIQLDATDPQALKEAGIFEFETVIVAIGNHLDASIITTLNLKEAGVPKVIAKASSEVHKKLLERVGADRVVFPEYEAGCELARSLTRPAILDCLNLDPQKSIVEVKVPEAFHGRTVAEVELRSRYGLNLIALRFDDKFEINPSPSQKLHQGDIMVVIGDNNDIERFLRSQHVH” here?
Answer: Its protein production is “failed”.

Question: With “MVNPTIPDDLLAKIAKTVAHKCWWDLQPLLRSGRRGRDVVYRPDVLKGANIFSMCEDPDDYQVDGSHHPSGPQEEGRHRAFFKRCVDAGNPTTMYFEALCVLTHERDIKGAINLLRPHVPSQAHATLACAILYIIDGNDYMGAIFLNLFGRNHYPLGTEETRDLCEEFLEDLKKFRPPYNNTYGSTFSYPNSHGIKTPDCALLCYIVSGPFKNVCNCCYLWWCARRVSQML” as the sequence, how does the protein production read?
Answer: Its protein production is “failed”.

Question: With “MVNTRNIIRQFTPNWFTTIMGTGVVAIVLGHFSELHTLGAALWLINTCLFCVFCILYMLRWSLFPHEARQIFHHPSMSLFLGAIPMALATLINGLLMYGNTVFGQHLPQLALWLWYIDVVLVISIGWVVPYFMFSRQQHHLHSITAMWLLPIVAAEVAAATGGLLVAEFVHSTQAISILWLSYMLWGMSVLPAFAILSLLILRLALHKLPEKELAISSWLSIGPIGTGALAMMLLGQHAPDVLQSIGMQSFGIFLQQAAKLISLVLLGCGVWWLGIAMFASLHHLKHGIPFNLGWWGLTFPLGVFTLALSQLGQLLGWNAFDHIAVILSVILVGLWSCVAVKTIQGAYRGQLFFSPCLQQLQQQQKACAQSETA” as the sequence, how does the protein production read?
Answer: The protein production was “failed”.

Question: With “MVNVDHDRFTTLVHELNQAKYEFHYKCAELVSNHEAAQPKKVLDEKKMDLEKLYEKVKEVMKKMVAFAENPKKEG” as the sequence, how does the protein production read?
Answer: Its protein production is “failed”.

Question: Which protein production does the source give for “MVNYKEKLDEAIHLTQQKGFEQTRAEWLMLDVFQWTRTDFVVHMHDDMPKAMIMKFDLALQRMLLGEPIQYIVGFASFYGRTFDVNSNCLIPRPETEEVMLHFLQQLEDDATIVDIGTGSGVLAITLKCEKPDLNVIATDISLEAMNMARNNAEKHQSQIQFLTGDALKPLINEGIKLNGLISNPPYIDEKDMVTMSPTVTRFEPHQALFADNHGYAIYESIIEDLPHVMEKGSPVVFEIGYNQGEALKSIILNKFPDKKIDIIKDINGHDRIVSFKW” here?
Answer: Its protein production is “failed”.

Reference: a protein production outcome set (Wang et al. 2014)
